Consider 6 variants from IntAct's records for PubMed 21572041.

Sequences and labels used below:
B1: C-type lectin domain family 2 member D (Homo sapiens), Q9UHP7-1 (parent)
chain: MHDSNNVEKDITPSELPANPGCLHSKEHSIKATLIWRLFFLIMFLTIIVCGMVAALSAIRANCHQEPSVCLQAACPESWIGFQRKCFYFSDDTKNWTSSQRFCDSQDADLAQVESFQELNFLLRYKGPSDHWIGLSREQGQPWKWINGTEWTRQFPILGAGECAYLNDKGASSARHYTERKWICSKSDIHV

The variants in the first assay derive from B1. As to conditions: with klrb1_human KLRB1, Q12918.
Chain of klrb1_human KLRB1, Q12918 (Q12918 whole entry): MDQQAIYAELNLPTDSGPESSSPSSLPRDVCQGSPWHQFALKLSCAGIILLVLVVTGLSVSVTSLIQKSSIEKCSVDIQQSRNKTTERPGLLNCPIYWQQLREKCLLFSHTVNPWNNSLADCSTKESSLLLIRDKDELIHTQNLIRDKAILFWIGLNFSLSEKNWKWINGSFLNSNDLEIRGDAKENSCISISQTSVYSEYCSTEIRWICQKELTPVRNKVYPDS
Take R180E: the “effect of a mutation on the interaction” value is given as “disrupting interaction strength”.
Still for that read-out and setting: in the case of Y165A it was “decreasing interaction strength”; in that of K181E, “disrupting interaction strength”.
Still for that read-out and setting: for K169E the value was “disrupting interaction strength”; for R175E, “disrupting interaction strength”; for N167A, “decreasing interaction strength”.

A further assay covers variants of B1. To be noted: with klrb1_human KLRB1, Q12918. The source holds these as a separate data set.
With K169E, the “effect of a mutation on the interaction” value is reported as “increasing interaction strength”.
